Test results taken from patent US20230210940A1 (published 2023).
No end group written: not given here. *: point of attachment. FITC = O=C1OC2(c3ccc(O)cc3Oc3cc(O)ccc32)c2ccc(NC(=S)*)cc21; Ahx = NCCCCCC(=O)O

Target: T1, CD13 (human, UniProt P15144 2-967)
T1 construct: whole, on cells; Endogenous CD13 on the cell membrane, detected with PE-labeled anti-human CD13 antibody clone WM-15; also called human CD13
Assay: Example 2 incubated with HT-1080 cells, anti-FITC immunoprecipitation, Western blot with anti-CD13 antibody WM-15
Method: Example 2 (80 μg/400 μL) reacted to HT-1080 cells (40 million cells) at 4° C. for 2 hours. The cells were then washed with PBS, and centrifuged. The centrifuged cells were dissolved in 1,000 μL of IP Lysis/Wash buffer (Thermo Fisher Scientific) with Halt Protease & Phosphatase inhibitor Single-Use Cocktail, ETDA-Free (Thermo Fisher Scientific) (10 μL) at 4° C. for 5 minutes. It was centrifuged at 4° C. for 10 minutes and the supernatant was collected. The supernatant was adjusted to be 1 mg in amount of protein and 80 μL of A/G agarose was added to it. The mixture was stirred at 4° C. for 1 hour and then centrifuged for 1 minute. Thus, a pre-treatment solution was obtained. 10 μg of IgG Fraction Monoclonal Mouse Anti-Fluorescein (FITC) (Jackson ImmunoResearch) or 10 μg of Mouse IgG Isotype Control (Thermo Fisher Scientific) was each added to the pre-treatment solution (1 mg/600 μL), and the mixtures were shaken at 4° C. overnight. Subsequently, 20 μL of A/G agarose was added and the mixtures were shaken at 4° C. for 2 hours. The mixtures were washed three times with the wash buffer described above and 20 μL of 2×Non-reducing Lane Marker Sample Buffer (Thermo Fisher Scientific) was added to the A/G agaroses. […]
The 10% solution used in immunoprecipitation was loaded to the left lane of FIG. 3. […] CD13 was not detected on the right lane, but CD 13 was detected on the center lane.

T1 sequence (P15144 2-967): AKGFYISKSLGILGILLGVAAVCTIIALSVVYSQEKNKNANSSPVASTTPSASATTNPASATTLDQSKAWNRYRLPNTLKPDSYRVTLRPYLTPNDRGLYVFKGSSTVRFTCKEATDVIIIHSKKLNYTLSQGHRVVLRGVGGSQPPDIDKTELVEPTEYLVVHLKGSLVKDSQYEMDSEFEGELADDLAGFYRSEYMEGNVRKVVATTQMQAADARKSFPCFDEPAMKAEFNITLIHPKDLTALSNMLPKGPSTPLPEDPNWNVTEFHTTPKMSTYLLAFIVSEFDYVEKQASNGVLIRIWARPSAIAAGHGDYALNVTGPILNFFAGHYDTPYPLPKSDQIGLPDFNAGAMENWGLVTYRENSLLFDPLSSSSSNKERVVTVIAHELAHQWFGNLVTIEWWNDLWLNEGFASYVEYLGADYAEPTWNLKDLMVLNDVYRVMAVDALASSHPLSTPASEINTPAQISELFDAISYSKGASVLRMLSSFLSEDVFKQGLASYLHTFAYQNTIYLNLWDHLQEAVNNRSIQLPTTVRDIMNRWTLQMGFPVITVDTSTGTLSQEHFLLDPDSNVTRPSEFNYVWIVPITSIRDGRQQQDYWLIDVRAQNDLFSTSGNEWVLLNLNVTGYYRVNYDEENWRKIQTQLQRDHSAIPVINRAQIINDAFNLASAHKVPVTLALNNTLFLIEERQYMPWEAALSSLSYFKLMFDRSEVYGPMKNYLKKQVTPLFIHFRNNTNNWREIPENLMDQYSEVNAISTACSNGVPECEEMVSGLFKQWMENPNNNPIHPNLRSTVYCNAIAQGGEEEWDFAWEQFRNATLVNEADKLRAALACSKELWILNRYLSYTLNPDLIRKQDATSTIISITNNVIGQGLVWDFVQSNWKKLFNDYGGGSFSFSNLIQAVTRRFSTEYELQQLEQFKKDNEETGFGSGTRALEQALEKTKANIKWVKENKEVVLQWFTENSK

{FITC-Ahx}-KDNRGNLLQCVCTGNGRGEWKC (cysteine pairing not given here): binds.
